Reference: patent publication US20180282430A1 (Bayer, published 2018)

T1: Human TFPI (tissue factor pathway inhibitor) (human, UniProt P10646 29-304, limits assumed)
T1 construct: Coated at 1 ug/ml on Maxisorb plates for the ELISA; For the Biacore work the human TFPI came from American Diagnostica
T1 sequence (looked up): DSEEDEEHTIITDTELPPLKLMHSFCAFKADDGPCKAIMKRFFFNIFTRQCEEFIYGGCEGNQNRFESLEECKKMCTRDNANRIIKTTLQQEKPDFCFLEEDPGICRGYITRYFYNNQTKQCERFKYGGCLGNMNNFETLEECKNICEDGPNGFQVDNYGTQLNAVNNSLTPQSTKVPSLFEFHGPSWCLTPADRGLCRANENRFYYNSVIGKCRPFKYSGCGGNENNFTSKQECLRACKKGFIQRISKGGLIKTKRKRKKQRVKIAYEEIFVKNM


Experiments:
[1] = molecular target: T1, Human TFPI (tissue factor pathway …); assay: pH 6.0 TFPI dissociation ELISA; ratio of the signals at pH 7.0 and pH 6.0
Procedure: (§1) Human TFPI, 1 μg/ml, was used to coat Maxisorb™ microtiter plates. Expression media, 100 μl, from each member of the His scan library, was added to two wells on the plate, in a pair wise fashion. The plate was incubated on a shaker at room temperature for 1 hr. The plate was washed 3× with PBST. PBS (pH 7.0) was added to one well of the pair, 100 mM pH6.0 Citrate buffer was added to the second well of the same pair. The plate was incubated at 37° C. with shaking for one hr. The plate was washed 3× with PBST and developed using amplex red. A pH 7.0/pH 6.0 ratio was established to rank the sensitive muteins. The ratio for wild type 2A8-g200 Fab was 1.0.

[2] = molecular target: T1, Human TFPI (tissue factor pathway …); assay: ELISA on plate-coated human TFPI; Fab expression media bound, then 1 h at 37 C in PBS pH 7.0; amplex red
Procedure: as §1

[3] = molecular target: T1, Human TFPI (tissue factor pathway …); assay: ELISA on plate-coated human TFPI; Fab expression media bound, then 1 h at 37 C in 100 mM citrate pH 6.0; amplex red
Procedure: as §1

[4] = molecular target: T1, Human TFPI (tissue factor pathway …); assay: SPR (Biacore T200): human TFPI amine-coupled on a CM4 or CM5 chip, Fab variant injected, dissociation followed in pH 7.4 or pH 6.0 buffer
Procedure: Purified 2A8-g200 variants in Fab format (referred to as wt gA200Fab in Table 1) were tested using surface plasmon resonance (Biacore). Surface plasmon resonance (Biacore T200) was used to measure the dissociation rate of the antibodies. […] Purified 2A8-g200 variants were injected, following by 40-minute dissociation either at pH7.4 or pH6.0 buffer. The antibodies were diluted in HBS-P buffer at different concentrations and the flow rate was set to 50 μl/min. After each round of antibody injection, the chip was regenerated by injecting 90 μl of pH 1.5 glycine. The data set was evaluated using BIAevaluation Software.
The dissociation constant (kd) for each 2A8-g200 variant antibody was determined by using a model with the following equation: […]
where R is the response at time t, R₀ is the response at time t_{0.}—the start of dissociation, offset allows for a residual response at the end of complete dissociation. A ratio of kd at pH 6.0 to kd at pH 7.4 was calculated for each 2A8-g200 variant. A mutation with observed ratio of […] was considered as pH-sensitive mutation and could be used for construction of IgG variants of 2A8-g200.

| Binder | Ratio pH 7.0/pH 6.0 [1] | TFPI ELISA signal, pH 7.0 [2] | TFPI ELISA signal, pH 6.0 [3] | fold (x) printed after the variant's name; the sheet does not name it, paragraph 57 speaks of the ratio of kd at pH 6.0 to kd at pH 7.4 [4] |
| --- | --- | --- | --- | --- |
| 2A8-g200 Fab (wild type) (Fab, V domains shown, Fab format, expressed in E. coli; also called wt gA200Fab; wild type 2A8-g200 Fab) VH: EVQLVESGGGLVQPGGSLRLSCAASGFTFSSYGMDWVRQAPGKGLEWVSSIRGSRGSTYYADSVKGRFTISRDNSKNTLYLQMNSLRAEDTAVYYCARLYRYWFDYWGQGTLVTVSS VL: SYELTQPPSVSVSPGQTARITCSGDNLPKYYAHWYQQKPGQAPVVVIFYDVNRPSGIPERFSGSNSGNTATLTISGTQAMDEADYYCQAWWSSTPVFGGGTKLTVLG | 0.98 | 5250 | 5350 | – |
| 2A8-g200 Fab VL-V45H (Fab, V domains shown, Member of the 2A8-g200 Fab histidine scanning library) VH: EVQLVESGGGLVQPGGSLRLSCAASGFTFSSYGMDWVRQAPGKGLEWVSSIRGSRGSTYYADSVKGRFTISRDNSKNTLYLQMNSLRAEDTAVYYCARLYRYWFDYWGQGTLVTVSS VL: SYELTQPPSVSVSPGQTARITCSGDNLPKYYAHWYQQKPGQAPVHVIFYDVNRPSGIPERFSGSNSGNTATLTISGTQAMDEADYYCQAWWSSTPVFGGGTKLTVLG | 1.24 | 2200 | 1770 | – |
| 2A8-g200 Fab VH-S50H (Fab, V domains shown) VH: EVQLVESGGGLVQPGGSLRLSCAASGFTFSSYGMDWVRQAPGKGLEWVSHIRGSRGSTYYADSVKGRFTISRDNSKNTLYLQMNSLRAEDTAVYYCARLYRYWFDYWGQGTLVTVSS VL: SYELTQPPSVSVSPGQTARITCSGDNLPKYYAHWYQQKPGQAPVVVIFYDVNRPSGIPERFSGSNSGNTATLTISGTQAMDEADYYCQAWWSSTPVFGGGTKLTVLG | 1.32 | 2160 | 1640 | – |
| 2A8-g200 Fab VL-W90H (Fab, V domains shown, Member of the 2A8-g200 Fab histidine scanning library) VH: EVQLVESGGGLVQPGGSLRLSCAASGFTFSSYGMDWVRQAPGKGLEWVSSIRGSRGSTYYADSVKGRFTISRDNSKNTLYLQMNSLRAEDTAVYYCARLYRYWFDYWGQGTLVTVSS VL: SYELTQPPSVSVSPGQTARITCSGDNLPKYYAHWYQQKPGQAPVVVIFYDVNRPSGIPERFSGSNSGNTATLTISGTQAMDEADYYCQAHWSSTPVFGGGTKLTVLG | 1.21 | 1830 | 1510 | – |
| 2A8-g200 Fab VH-Y32H (Fab, V domains shown, Member of the 2A8-g200 Fab histidine scanning library) VH: EVQLVESGGGLVQPGGSLRLSCAASGFTFSSHGMDWVRQAPGKGLEWVSSIRGSRGSTYYADSVKGRFTISRDNSKNTLYLQMNSLRAEDTAVYYCARLYRYWFDYWGQGTLVTVSS VL: SYELTQPPSVSVSPGQTARITCSGDNLPKYYAHWYQQKPGQAPVVVIFYDVNRPSGIPERFSGSNSGNTATLTISGTQAMDEADYYCQAWWSSTPVFGGGTKLTVLG | 1.38 | 3560 | 2580 | – |
| 2A8-g200 Fab VL-F48H (Fab, V domains shown, Member of the 2A8-g200 Fab histidine scanning library) VH: EVQLVESGGGLVQPGGSLRLSCAASGFTFSSYGMDWVRQAPGKGLEWVSSIRGSRGSTYYADSVKGRFTISRDNSKNTLYLQMNSLRAEDTAVYYCARLYRYWFDYWGQGTLVTVSS VL: SYELTQPPSVSVSPGQTARITCSGDNLPKYYAHWYQQKPGQAPVVVIHYDVNRPSGIPERFSGSNSGNTATLTISGTQAMDEADYYCQAWWSSTPVFGGGTKLTVLG | 1.33 | 2070 | 1550 | – |
| 2A8-g200 Fab VH-Y102H (Fab, V domains shown, Member of the 2A8-g200 Fab histidine scanning library) VH: EVQLVESGGGLVQPGGSLRLSCAASGFTFSSYGMDWVRQAPGKGLEWVSSIRGSRGSTYYADSVKGRFTISRDNSKNTLYLQMNSLRAEDTAVYYCARLYRHWFDYWGQGTLVTVSS VL: SYELTQPPSVSVSPGQTARITCSGDNLPKYYAHWYQQKPGQAPVVVIFYDVNRPSGIPERFSGSNSGNTATLTISGTQAMDEADYYCQAWWSSTPVFGGGTKLTVLG | 3.07 | 3310 | 1080 | – |
| 2A8-g200 Fab VL-Y31H (Fab, V domains shown, Member of the 2A8-g200 Fab histidine scanning library) VH: EVQLVESGGGLVQPGGSLRLSCAASGFTFSSYGMDWVRQAPGKGLEWVSSIRGSRGSTYYADSVKGRFTISRDNSKNTLYLQMNSLRAEDTAVYYCARLYRYWFDYWGQGTLVTVSS VL: SYELTQPPSVSVSPGQTARITCSGDNLPKYHAHWYQQKPGQAPVVVIFYDVNRPSGIPERFSGSNSGNTATLTISGTQAMDEADYYCQAWWSSTPVFGGGTKLTVLG | 6.84 | 913 | 133 | 3.2 x |
| 2A8-g200 Fab VH-Y100H (Fab, V domains shown, Member of the 2A8-g200 Fab histidine scanning library) VH: EVQLVESGGGLVQPGGSLRLSCAASGFTFSSYGMDWVRQAPGKGLEWVSSIRGSRGSTYYADSVKGRFTISRDNSKNTLYLQMNSLRAEDTAVYYCARLHRYWFDYWGQGTLVTVSS VL: SYELTQPPSVSVSPGQTARITCSGDNLPKYYAHWYQQKPGQAPVVVIFYDVNRPSGIPERFSGSNSGNTATLTISGTQAMDEADYYCQAWWSSTPVFGGGTKLTVLG | 1.78 | 2540 | 1430 | – |
| 2A8-g200 Fab VL-L27H (Fab, V domains shown, Member of the 2A8-g200 Fab histidine scanning library) VH: EVQLVESGGGLVQPGGSLRLSCAASGFTFSSYGMDWVRQAPGKGLEWVSSIRGSRGSTYYADSVKGRFTISRDNSKNTLYLQMNSLRAEDTAVYYCARLYRYWFDYWGQGTLVTVSS VL: SYELTQPPSVSVSPGQTARITCSGDNHPKYYAHWYQQKPGQAPVVVIFYDVNRPSGIPERFSGSNSGNTATLTISGTQAMDEADYYCQAWWSSTPVFGGGTKLTVLG | 1.3 | 3420 | 2640 | 2.7 x |
| 2A8-g200 Fab VL-Y49H (Fab, V domains shown, Member of the 2A8-g200 Fab histidine scanning library) VH: EVQLVESGGGLVQPGGSLRLSCAASGFTFSSYGMDWVRQAPGKGLEWVSSIRGSRGSTYYADSVKGRFTISRDNSKNTLYLQMNSLRAEDTAVYYCARLYRYWFDYWGQGTLVTVSS VL: SYELTQPPSVSVSPGQTARITCSGDNLPKYYAHWYQQKPGQAPVVVIFHDVNRPSGIPERFSGSNSGNTATLTISGTQAMDEADYYCQAWWSSTPVFGGGTKLTVLG | 1.3 | 2660 | 2040 | – |
